In patent US20250011379A1 (VERTEX PHARMACEUTICALS, published 2025):

Target: soluble human C3b (human, UniProt P01024 23-1663, limits assumed)
Test: cell-based or functional assay

soluble human C3b, sequence (P01024 23-1663 limits assumed): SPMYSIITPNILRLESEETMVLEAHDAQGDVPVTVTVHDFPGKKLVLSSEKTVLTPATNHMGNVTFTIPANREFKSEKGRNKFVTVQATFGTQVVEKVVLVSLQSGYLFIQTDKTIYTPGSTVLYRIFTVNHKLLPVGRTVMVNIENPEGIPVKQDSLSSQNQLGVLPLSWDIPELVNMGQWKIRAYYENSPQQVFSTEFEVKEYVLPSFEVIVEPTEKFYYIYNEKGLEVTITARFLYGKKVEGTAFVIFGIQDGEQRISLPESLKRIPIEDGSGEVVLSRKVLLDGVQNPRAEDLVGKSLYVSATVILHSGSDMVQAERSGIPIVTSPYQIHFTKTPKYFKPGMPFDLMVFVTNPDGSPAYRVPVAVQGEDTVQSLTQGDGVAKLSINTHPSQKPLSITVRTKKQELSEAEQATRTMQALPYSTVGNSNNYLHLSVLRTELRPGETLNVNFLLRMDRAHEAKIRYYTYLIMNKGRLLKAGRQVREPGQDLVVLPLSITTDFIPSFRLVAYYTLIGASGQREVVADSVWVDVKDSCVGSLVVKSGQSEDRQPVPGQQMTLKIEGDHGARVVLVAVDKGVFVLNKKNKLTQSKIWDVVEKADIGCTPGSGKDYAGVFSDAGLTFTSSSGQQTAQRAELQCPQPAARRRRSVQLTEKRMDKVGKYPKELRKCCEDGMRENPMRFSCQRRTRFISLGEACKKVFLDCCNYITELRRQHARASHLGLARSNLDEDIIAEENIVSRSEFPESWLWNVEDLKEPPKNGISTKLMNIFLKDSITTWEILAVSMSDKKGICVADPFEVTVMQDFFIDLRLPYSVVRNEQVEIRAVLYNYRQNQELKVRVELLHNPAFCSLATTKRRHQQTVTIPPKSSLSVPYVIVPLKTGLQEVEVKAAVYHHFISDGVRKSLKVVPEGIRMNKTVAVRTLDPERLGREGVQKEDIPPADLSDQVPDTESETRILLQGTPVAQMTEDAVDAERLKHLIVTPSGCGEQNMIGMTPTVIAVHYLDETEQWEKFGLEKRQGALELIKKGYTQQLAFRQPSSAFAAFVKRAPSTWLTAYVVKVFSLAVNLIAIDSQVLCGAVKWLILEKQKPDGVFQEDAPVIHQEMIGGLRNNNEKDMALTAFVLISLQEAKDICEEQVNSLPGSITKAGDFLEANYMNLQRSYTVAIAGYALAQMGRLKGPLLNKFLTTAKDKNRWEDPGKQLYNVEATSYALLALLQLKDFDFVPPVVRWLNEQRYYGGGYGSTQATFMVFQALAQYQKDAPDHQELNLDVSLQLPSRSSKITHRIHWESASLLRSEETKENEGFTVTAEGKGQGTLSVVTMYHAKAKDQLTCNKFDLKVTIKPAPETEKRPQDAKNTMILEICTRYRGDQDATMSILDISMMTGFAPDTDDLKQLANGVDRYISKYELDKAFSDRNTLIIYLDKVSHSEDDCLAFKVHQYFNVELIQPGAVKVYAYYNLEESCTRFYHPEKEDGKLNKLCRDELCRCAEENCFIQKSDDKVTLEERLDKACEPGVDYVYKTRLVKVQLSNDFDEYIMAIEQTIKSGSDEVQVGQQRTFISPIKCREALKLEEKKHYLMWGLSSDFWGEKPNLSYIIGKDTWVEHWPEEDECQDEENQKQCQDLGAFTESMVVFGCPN

Row | iC3b EC50 [nM] | Binder
1 | 50.1 | Const. No. 94: hCFI-PD (wild type plasma-derived human CFI) (enzyme) KVTYTSQEDLVEKKCLAKKYTHLSCDKVFCQPWQRCIEGTCVCKLPYQCPKNGTAVCATNRRSFPTYCQQKSLECLHPGTKFLNNGTCTAEGKFSVSLKHGNTDSEGIVEVKLVDQDKTMFICKSSWSMREANVACLDLGFQQGADTQRRFKLSDLSINSTECLHVHCRGLETSLAECTFTKRRTMGYQDFADVVCYTQKADSPMDDFFQCVNGKYISQMKACDGINDCGDQSDELCCKACQGKGFHCKSGVCIPSQYQCNGEVDCITGEDEVGCAGFASVTQEETEILTADMDAERRRIKSLLPKLSCGVKNRMHIRRKRIVGGKRAQLGDLPWQVAIKDASGITCGGIYIGGCWILTAAHCLRASKTHRYQIWTTVVDWIHPDLKRIVIEYVDRIIFHENYNAGTYQNDIALIEMKKDGNKKDCELPRSIPACVPWSPYLFQPNDTCIVSGWGREKDNERVFSLQWGEVKLISNCSKFYGNRFYEKEMECAGTYDGSIDACKGDSGGPLVCMDANNVTYVWGVVSWGENCGKPEFPGVYTKVANYFDWISYHVGRPFISQYNV
2 | 62.4 | Const. No. 96: hCFI (wt hCFI, no signal sequence, no HSA) (enzyme) KVTYTSQEDLVEKKCLAKKYTHLSCDKVFCQPWQRCIEGTCVCKLPYQCPKNGTAVCATNRRSFPTYCQQKSLECLHPGTKFLNNGTCTAEGKFSVSLKHGNTDSEGIVEVKLVDQDKTMFICKSSWSMREANVACLDLGFQQGADTQRRFKLSDLSINSTECLHVHCRGLETSLAECTFTKRRTMGYQDFADVVCYTQKADSPMDDFFQCVNGKYISQMKACDGINDCGDQSDELCCKACQGKGFHCKSGVCIPSQYQCNGEVDCITGEDEVGCAGFASVTQEETEILTADMDAERRRIKSLLPKLSCGVKNRMHIRRKRIVGGKRAQLGDLPWQVAIKDASGITCGGIYIGGCWILTAAHCLRASKTHRYQIWTTVVDWIHPDLKRIVIEYVDRIIFHENYNAGTYQNDIALIEMKKDGNKKDCELPRSIPACVPWSPYLFQPNDTCIVSGWGREKDNERVFSLQWGEVKLISNCSKFYGNRFYEKEMECAGTYDGSIDACKGDSGGPLVCMDANNVTYVWGVVSWGENCGKPEFPGVYTKVANYFDWISYHVGRPFISQYNV
